# In PMC5517563 (Scientific Reports, 2017):
# T1: MtACK (Methanosarcina thermophila acetate kinase) (Methanosarcina thermophila, UniProt P38502)
# T1 construct: gene ackA; recombinant, produced in E. coli Rosetta2 (DE3) pLysS
# T1 sequence (P38502 1-408): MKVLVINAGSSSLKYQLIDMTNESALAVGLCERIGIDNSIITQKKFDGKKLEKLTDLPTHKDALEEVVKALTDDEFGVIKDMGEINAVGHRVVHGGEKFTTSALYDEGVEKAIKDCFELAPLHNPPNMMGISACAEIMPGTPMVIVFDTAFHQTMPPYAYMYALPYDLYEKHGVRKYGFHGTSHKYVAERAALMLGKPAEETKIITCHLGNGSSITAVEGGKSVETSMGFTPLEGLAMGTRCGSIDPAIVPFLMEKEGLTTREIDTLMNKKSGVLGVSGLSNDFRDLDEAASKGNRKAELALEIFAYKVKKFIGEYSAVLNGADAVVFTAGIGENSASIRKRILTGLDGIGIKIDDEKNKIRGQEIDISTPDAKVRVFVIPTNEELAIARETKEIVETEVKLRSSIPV
# T2: MtACK (Methanosarcina thermophila acetate kinase) (Methanosarcina thermophila, UniProt P38502, G331Q/I332M)
# T2 construct: gene ackA; recombinant, produced in E. coli Rosetta2 (DE3) pLysS
# T2 sequence (P38502 1-408 G331Q/I332M): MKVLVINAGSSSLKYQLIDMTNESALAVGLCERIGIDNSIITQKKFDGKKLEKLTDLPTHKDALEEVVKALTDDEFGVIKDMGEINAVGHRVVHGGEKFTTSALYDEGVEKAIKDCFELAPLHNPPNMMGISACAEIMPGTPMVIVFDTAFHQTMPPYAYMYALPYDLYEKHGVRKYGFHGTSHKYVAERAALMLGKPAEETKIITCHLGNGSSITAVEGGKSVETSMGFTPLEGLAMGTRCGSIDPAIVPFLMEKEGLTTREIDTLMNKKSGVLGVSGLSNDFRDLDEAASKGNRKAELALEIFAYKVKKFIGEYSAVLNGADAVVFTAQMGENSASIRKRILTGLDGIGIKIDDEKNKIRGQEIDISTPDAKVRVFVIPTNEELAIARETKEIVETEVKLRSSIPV
# T3: EhACK (Entamoeba histolytica acetate kinase) (Entamoeba histolytica, UniProt C4M1C3)
# T3 construct: gene EHI_170010; recombinant, produced in E. coli YBS121 delta-ack delta-pta (pREP4)
# T3 sequence (C4M1C3 1-392): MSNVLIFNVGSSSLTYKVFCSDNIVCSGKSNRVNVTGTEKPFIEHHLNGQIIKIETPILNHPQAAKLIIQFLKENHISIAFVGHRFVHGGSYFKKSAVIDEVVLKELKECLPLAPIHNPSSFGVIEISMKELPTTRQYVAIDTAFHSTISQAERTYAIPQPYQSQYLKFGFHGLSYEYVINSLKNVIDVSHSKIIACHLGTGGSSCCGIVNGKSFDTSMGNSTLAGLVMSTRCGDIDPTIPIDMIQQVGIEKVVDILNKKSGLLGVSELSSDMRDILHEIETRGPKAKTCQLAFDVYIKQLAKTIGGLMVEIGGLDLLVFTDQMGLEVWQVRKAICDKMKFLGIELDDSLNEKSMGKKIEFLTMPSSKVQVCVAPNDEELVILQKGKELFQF
# Tests used:
# [1] = target: T1, MtACK (Methanosarcina thermophila acetate kinase); assay: reverse modified hydroxamate assay ([…] nm); format: biochemical; conditions: read-out: ATP IC50 (mM) / Acetate-forming direction
# [2] = target: T2, MtACK (Methanosarcina thermophila acetate kinase); assay: reverse modified hydroxamate assay ([…] nm); format: biochemical; conditions: read-out: ATP IC50 (mM) / Acetate-forming direction
# [3] = target: T4, EhACK (Entamoeba histolytica acetate kinase) (Entamoeba histolytica, UniProt C4M1C3, D272A/M324I/Q323G/R274A); assay: biochemical
# T4 construct: gene EHI_170010
# [4] = target: T3, EhACK (Entamoeba histolytica acetate kinase); assay: reverse modified hydroxamate assay ([…] nm); format: biochemical; conditions: read-out: ATP IC50 (mM) / Acetate-forming direction
# [5] = target: T1, MtACK (Methanosarcina thermophila acetate kinase); assay: hydroxamate assay ([…] nm); format: biochemical; conditions: acetyl phosphate-forming direction; MgATP, co-substrate acetate; 100 mM Tris pH 7.5, 600 mM hydroxylamine, 37 °C; apparent
# [6] = target: T2, MtACK (Methanosarcina thermophila acetate kinase); assay: hydroxamate assay ([…] nm); format: biochemical; conditions: acetyl phosphate-forming direction; MgATP, co-substrate acetate; 100 mM Tris pH 7.5, 600 mM hydroxylamine, 37 °C; apparent
# [7] = target: T5, EhACK (Entamoeba histolytica acetate kinase) (Entamoeba histolytica, UniProt C4M1C3, M324A/Q323A); assay: biochemical
# T5 construct: gene EHI_170010
# [8] = target: T6, EhACK (Entamoeba histolytica acetate kinase) (Entamoeba histolytica, UniProt C4M1C3, M324I/Q323G); assay: biochemical
# T6 construct: gene EHI_170010
# [9] = substrate: O=P(O)(O)OP(=O)(O)O; assay: purified protein; conditions: acetyl phosphate-forming direction, co-substrate acetate, 5 mM MgCl2, morpholinoethanesulfonic acid pH 5.5, 600 mM hydroxylamine, 45 °C, apparent
# [10] = substrate: O=P(O)(O)O; assay: purified protein; conditions: acetate-forming direction, co-substrate acetyl phosphate, 10 mM MgCl2, 100 mM Tris-HCl pH 7.0, 37 °C, apparent, pH 7.0
# [11] = substrate: CC(=O)OP(=O)(O)O; assay: purified protein; conditions: acetate-forming direction, apparent
# [12] = substrate: Nc1ncnc2c1ncn2[C@@H]1O[C@H](COP(=O)(O)OP(=O)(O)O)[C@@H](O)[C@H]1O; assay: purified protein; conditions: acetate-forming direction, MgADP, co-substrate acetyl phosphate, 100 mM Tris pH 7.5, 37 °C, apparent
# [13] = substrate: CC(=O)O; assay: purified protein; conditions: acetyl phosphate-forming direction, co-substrate MgATP, 100 mM Tris pH 7.5, 600 mM hydroxylamine, 37 °C, apparent, pH 7.5
# [14] = co-substrate Pi, 10 mM MgCl2, 100 mM Tris-HCl pH 7.0, 37 °C
# [15] = co-substrate MgADP, 100 mM Tris pH 7.5, 37 °C
molecule,measurement,setting,value
O=P(O)(O)OP(=O)(O)O [PPi],IC50,[1],3.3 ± 0.06 mM
same,IC50,[2],4 ± 0.28 mM
Nc1ncnc2c1ncn2[C@@H]1O[C@H](COP(=O)(O)OP(=O)(O)OP(=O)(O)O)[C@@H](O)[C@H]1O [ATP],IC50,[3],2.4 ± 0.19 mM
same,IC50,[4],6.1 ± 0.05 mM
same,Km,[5],1.7 ± 0.03 mM
same,Km,[6],9.4 ± 0.27 mM
same,IC50,[7],4.8 ± 0.09 mM
same,IC50,[8],4.2 ± 0.3 mM
EhACK (Entamoeba histolytica acetate kinase) (Entamoeba histolytica HM-1:IMSS) (protein) MSNVLIFNVGSSSLTYKVFCSDNIVCSGKSNRVNVTGTEKPFIEHHLNGQIIKIETPILNHPQAAKLIIQFLKENHISIAFVGHRFVHGGSYFKKSAVIDEVVLKELKECLPLAPIHNPSSFGVIEISMKELPTTRQYVAIDTAFHSTISQAERTYAIPQPYQSQYLKFGFHGLSYEYVINSLKNVIDVSHSKIIACHLGTGGSSCCGIVNGKSFDTSMGNSTLAGLVMSTRCGDIDPTIPIDMIQQVGIEKVVDILNKKSGLLGVSELSSDMRDILHEIETRGPKAKTCQLAFDVYIKQLAKTIGGLMVEIGGLDLLVFTDQMGLEVWQVRKAICDKMKFLGIELDDSLNEKSMGKKIEFLTMPSSKVQVCVAPNDEELVILQKGKELFQF,Km,[9],2.1 ± 0.33 mM
same,kcat,[9],0.9 ± 0.03 s⁻¹
same,kcat/Km,[9],440 ± 60 M⁻¹ s⁻¹
same,Km,[10],14 ± 1.2 mM
same,kcat,[10],196 s⁻¹
same,kcat/Km,[10],14000 M⁻¹ s⁻¹
same,Km,[11]; [14],0.57 ± 0.03 mM
same,kcat,[11]; [14],266 ± 12 s⁻¹
same,kcat/Km,[11]; [14],467000 ± 44000 M⁻¹ s⁻¹
MtACK (Methanosarcina thermophila acetate kinase) (Methanosarcina thermophila) (protein) MKVLVINAGSSSLKYQLIDMTNESALAVGLCERIGIDNSIITQKKFDGKKLEKLTDLPTHKDALEEVVKALTDDEFGVIKDMGEINAVGHRVVHGGEKFTTSALYDEGVEKAIKDCFELAPLHNPPNMMGISACAEIMPGTPMVIVFDTAFHQTMPPYAYMYALPYDLYEKHGVRKYGFHGTSHKYVAERAALMLGKPAEETKIITCHLGNGSSITAVEGGKSVETSMGFTPLEGLAMGTRCGSIDPAIVPFLMEKEGLTTREIDTLMNKKSGVLGVSGLSNDFRDLDEAASKGNRKAELALEIFAYKVKKFIGEYSAVLNGADAVVFTAGIGENSASIRKRILTGLDGIGIKIDDEKNKIRGQEIDISTPDAKVRVFVIPTNEELAIARETKEIVETEVKLRSSIPV,Km,[12],1.8 ± 0.13 mM
same,kcat,[12],1915 ± 15 s⁻¹
same,kcat/Km,[12],1.07e+06 ± 69000 M⁻¹ s⁻¹
same,Km,[11]; [15],1.2 ± 0.09 mM
same,kcat,[11]; [15],1550 ± 54 s⁻¹
same,kcat/Km,[11]; [15],1.29e+06 ± 56000 M⁻¹ s⁻¹
same,Km,[13],20 ± 0.3 mM
same,kcat,[13],789 s⁻¹
same,kcat/Km,[13],39000 M⁻¹ s⁻¹
MtACK (Methanosarcina thermophila acetate kinase) (Methanosarcina thermophila; G331Q/I332M) (protein) MKVLVINAGSSSLKYQLIDMTNESALAVGLCERIGIDNSIITQKKFDGKKLEKLTDLPTHKDALEEVVKALTDDEFGVIKDMGEINAVGHRVVHGGEKFTTSALYDEGVEKAIKDCFELAPLHNPPNMMGISACAEIMPGTPMVIVFDTAFHQTMPPYAYMYALPYDLYEKHGVRKYGFHGTSHKYVAERAALMLGKPAEETKIITCHLGNGSSITAVEGGKSVETSMGFTPLEGLAMGTRCGSIDPAIVPFLMEKEGLTTREIDTLMNKKSGVLGVSGLSNDFRDLDEAASKGNRKAELALEIFAYKVKKFIGEYSAVLNGADAVVFTAQMGENSASIRKRILTGLDGIGIKIDDEKNKIRGQEIDISTPDAKVRVFVIPTNEELAIARETKEIVETEVKLRSSIPV,Km,[12],5.7 ± 0.56 mM
same,kcat,[12],12 ± 0.5 s⁻¹
same,kcat/Km,[12],2000 ± 140 M⁻¹ s⁻¹
